{"source": "patent US10613105", "biological_target": "TLR2/6 receptor expressed on NIH 3T3 TLR2/6 receptor cells (whole-cell sensor elements, printed or pipetted)", "test": "fluorescence of rhodamine-labeled pyrogen bound to printed or pipetted receptor cells on a membrane, against the control cell line and membrane; after drying, ethanol fixing or storage at 4° C."}
{"substance": "Pam3CSK4 with rhodamine labeling (peptide)", "values": [{"measurement": "delta of the fluorescence intensity", "value": "> 3000", "unit": "a.u."}]}
